Results from patent publication US20140363428A1 (Chugai, published 2014).
Substitutions are numbered along the chain they refer to.

B1: IgG1-F1277 (antibody)
heavy: QVQLQESGPGLVKPSETLSLTCAVSGHSISHDHAWSWVRQPPGEGLEWIGFISYSGITNYNPSLQGRVTISRDNSKNTLYLQMNSLRAEDTAVYYCARSLARTTAMDYWGEGTLVTVSSASTKGPSVFPLAPSSKSTSGGTAALGCLVKDYFPEPVTVSWNSGALTSGVHTFPAVLQSSGLYSLSSVVTVPSSSLGTQTYICNVNHKPSNTKVDKKVEPKSCDKTHTCPPCPAPELRGGPKVFLFPPKPKDTLYISRAPEVTCVVVDVSHEDPEVKFNWYVDGVEVHNAKTKPREEQYNSTYRVVSVLTVLHQDWLNGKEYKCKVSNKALPAPIEKTISKAKGQPREPQVYTLPPSRDELTKNQVSLTCLVKGFYPSDIAVEWESNGQPENNYKTTPPVLDSDGSFFLYSKLTVDKSRWQQGNVFSCSVMHEALDYHVTRKELSLSP
light: not shown
notes: EU numbering; copies: 2 + 2
B2: IgG1-F1341 (antibody)
heavy: B1 heavy with S256T, A258T, D435H, V438T, R440K
light: not shown
notes: EU numbering; copies: 2 + 2
B3: IgG1-F1305 (antibody)
heavy: B1 heavy with A258T, E442D
light: not shown
notes: EU numbering; copies: 2 + 2
B4: IgG1-F1312 (antibody)
heavy: B1 heavy with A258T, V424L, S426L, R440Q, E442S
light: not shown
notes: EU numbering; copies: 2 + 2
B5: IgG1-F1285 (antibody)
heavy: B1 heavy with S256T, A258T, D435H, R440K, E442D
light: not shown
notes: EU numbering; copies: 2 + 2
B6: IgG1-F1280 (antibody)
heavy: B1 heavy with A258G
light: not shown
notes: EU numbering; copies: 2 + 2
B7: IgG1-F1323 (antibody)
heavy: B1 heavy with S256T, A258T, R440K
light: not shown
notes: EU numbering; copies: 2 + 2
B8: IgG1-F1330 (antibody)
heavy: B1 heavy with G238R, A258E, D435H
light: not shown
notes: EU numbering; copies: 2 + 2
B9: IgG1-F1343 (antibody)
heavy: B1 heavy with S256T, A258E, D435H, V438T, R440K
light: not shown
notes: EU numbering; copies: 2 + 2
B10: IgG1-F1340 (antibody)
heavy: B1 heavy with S256T, A258E, D435H, R440K
light: not shown
notes: EU numbering; copies: 2 + 2
B11: IgG1-F1331 (antibody)
heavy: B1 heavy with G238R, S256T, A258E, D435H
light: not shown
notes: EU numbering; copies: 2 + 2
B12: IgG1-F1283 (antibody)
heavy: B1 heavy with A258N
light: not shown
notes: EU numbering; copies: 2 + 2
B13: IgG1-F1284 (antibody)
heavy: B1 heavy with A258N, R440K, E442D
light: not shown
notes: EU numbering; copies: 2 + 2
B14: IgG1-F1328 (antibody)
heavy: B1 heavy with G238R, A258T, D435H
light: not shown
notes: EU numbering; copies: 2 + 2
B15: IgG1-F1281 (antibody)
heavy: B1 heavy with A258G, R440K, E442D
light: not shown
notes: EU numbering; copies: 2 + 2
B16: IgG1-F1302 (antibody)
heavy: B1 heavy with A258E, V438Y, R440K, E442D
light: not shown
notes: EU numbering; copies: 2 + 2
B17: IgG1-F1288 (antibody)
heavy: B1 heavy with A258E, D435H, R440K, E442D
light: not shown
notes: EU numbering; copies: 2 + 2
B18: IgG1-F1320 (antibody)
heavy: B1 heavy with S256T, A258T, D435H, E442D
light: not shown
notes: EU numbering; copies: 2 + 2
B19: IgG1-F1333 (antibody)
heavy: B1 heavy with G238R, A258T, D435H, R440Q, E442S
light: not shown
notes: EU numbering; copies: 2 + 2
B20: IgG1-F1304 (antibody)
heavy: B1 heavy with A258E, V438F, R440K, E442D
light: not shown
notes: EU numbering; copies: 2 + 2
B21: IgG1-F1295 (antibody)
heavy: B1 heavy with A258E, D435H, V438F
light: not shown
notes: EU numbering; copies: 2 + 2
B22: IgG1-F1338 (antibody)
heavy: B1 heavy with A258E, R440K
light: not shown
notes: EU numbering; copies: 2 + 2
B23: IgG1-F1345 (antibody)
heavy: B1 heavy with G238R, A258T, D435H, R440K
light: not shown
notes: EU numbering; copies: 2 + 2
B24: IgG1-F1293 (antibody)
heavy: B1 heavy with A258E, D435H, V438Y
light: not shown
notes: EU numbering; copies: 2 + 2
B25: IgG1-F1346 (antibody)
heavy: B1 heavy with G238R, S256T, A258T, D435H, R440K
light: not shown
notes: EU numbering; copies: 2 + 2
B26: IgG1-F1298 (antibody)
heavy: B1 heavy with A258E, V438F
light: not shown
notes: EU numbering; copies: 2 + 2
B27: IgG1-F1347 (antibody)
heavy: B1 heavy with G238R, A258E, D435H, R440K
light: not shown
notes: EU numbering; copies: 2 + 2
B28: IgG1-F1344 (antibody)
heavy: B1 heavy with A258T, D435H, V438T, R440K
light: not shown
notes: EU numbering; copies: 2 + 2
B29: IgG1-F1314 (antibody)
heavy: B1 heavy with A258T, R440L, E442L
light: not shown
notes: EU numbering; copies: 2 + 2
B30: IgG1-F1300 (antibody)
heavy: B1 heavy with A258E, D435H, V438T, R440K, E442D
light: not shown
notes: EU numbering; copies: 2 + 2
B31: IgG1-F1339 (antibody)
heavy: B1 heavy with S256T, A258E, V438T, R440K
light: not shown
notes: EU numbering; copies: 2 + 2
B32: IgG1-F1315 (antibody)
heavy: B1 heavy with R237L, G239K, A258T, D435H, R440Q, E442S
light: not shown
notes: EU numbering; copies: 2 + 2
B33: IgG1-F1319 (antibody)
heavy: B1 heavy with R237L, K241S, A258T, L330Y, D435H, V438Y, R440Q, E442S
light: not shown
notes: EU numbering; copies: 2 + 2
B34: IgG1-F1309 (antibody)
heavy: B1 heavy with A258T, D435H, R440A, E442A
light: not shown
notes: EU numbering; copies: 2 + 2
B35: IgG1-F1325 (antibody)
heavy: B1 heavy with L236A, R237A, K241S, A258T, N299A, D435H, R440Q, E442S
light: not shown
notes: EU numbering; copies: 2 + 2
B36: IgG1-F1292 (antibody)
heavy: B1 heavy with Y254M, A258T, Y436W
light: not shown
notes: EU numbering; copies: 2 + 2
B37: IgG1-F1321 (antibody)
heavy: B1 heavy with S256T, A258T, D435H, R440K
light: not shown
notes: EU numbering; copies: 2 + 2
B38: IgG1-F1296 (antibody)
heavy: B1 heavy with A258E, V438Y
light: not shown
notes: EU numbering; copies: 2 + 2
B39: IgG1-F1335 (antibody)
heavy: B1 heavy with G238R, S256T, A258T, D435H, R440K, E442D
light: not shown
notes: EU numbering; copies: 2 + 2
B40: IgG1-F1306 (antibody)
heavy: B1 heavy with A258T, R440K
light: not shown
notes: EU numbering; copies: 2 + 2
B41: IgG1-F1282 (antibody)
heavy: B1 heavy with A258N, D435H, R440K, E442D
light: not shown
notes: EU numbering; copies: 2 + 2
B42: IgG1-F1310 (antibody)
heavy: B1 heavy with A258T, D435H, R440L, E442L
light: not shown
notes: EU numbering; copies: 2 + 2
B43: IgG1-F1324 (antibody)
heavy: B1 heavy with L236A, R237A, K241S, A258T, D435H, R440Q, E442S
light: not shown
notes: EU numbering; copies: 2 + 2
B44: IgG1-F1329 (antibody)
heavy: B1 heavy with G238R, S256T, A258T, D435H
light: not shown
notes: EU numbering; copies: 2 + 2
B45: IgG1-F1291 (antibody)
heavy: B1 heavy with A258T, R440Q, E442S
light: not shown
notes: EU numbering; copies: 2 + 2
B46: IgG1-F1311 (antibody)
heavy: B1 heavy with A258T, V424A, S426A, R440Q, E442S
light: not shown
notes: EU numbering; copies: 2 + 2
B47: IgG1-F1316 (antibody)
heavy: B1 heavy with R237L, G239R, A258T, D435H, R440Q, E442S
light: not shown
notes: EU numbering; copies: 2 + 2
B48: IgG1-F1290 (antibody)
heavy: B1 heavy with A258E, R440K, E442D
light: not shown
notes: EU numbering; copies: 2 + 2
B49: IgG1-F1308 (antibody)
heavy: B1 heavy with A258T, V424L, S426L, D435H, R440Q, E442S
light: not shown
notes: EU numbering; copies: 2 + 2
B50: IgG1-F1289 (antibody)
heavy: B1 heavy with A258E
light: not shown
notes: EU numbering; copies: 2 + 2
B51: IgG1-F1313 (antibody)
heavy: B1 heavy with A258T, R440A, E442A
light: not shown
notes: EU numbering; copies: 2 + 2
B52: IgG1-F1336 (antibody)
heavy: B1 heavy with G238R, A258E, D435H, R440K, E442D
light: not shown
notes: EU numbering; copies: 2 + 2
B53: IgG1-F1342 (antibody)
heavy: B1 heavy with A258E, D435H, V438T, R440K
light: not shown
notes: EU numbering; copies: 2 + 2
B54: IgG1-F1317 (antibody)
heavy: B1 heavy with R237L, A258T, P331K, D435H, R440Q, E442S
light: not shown
notes: EU numbering; copies: 2 + 2
B55: IgG1-F1334 (antibody)
heavy: B1 heavy with G238R, A258T, D435H, R440K, E442D
light: not shown
notes: EU numbering; copies: 2 + 2
B56: IgG1-F1279 (antibody)
heavy: B1 heavy with A258G, D435H, R440K, E442D
light: not shown
notes: EU numbering; copies: 2 + 2
B57: IgG1-F1286 (antibody)
heavy: B1 heavy with S256T, A258T
light: not shown
notes: EU numbering; copies: 2 + 2
B58: IgG1-F1337 (antibody)
heavy: B1 heavy with A258E, D435H, R440K
light: not shown
notes: EU numbering; copies: 2 + 2
B59: IgG1-F1307 (antibody)
heavy: B1 heavy with A258T, V424A, S426A, D435H, R440Q, E442S
light: not shown
notes: EU numbering; copies: 2 + 2
B60: IgG1-F1318 (antibody)
heavy: B1 heavy with R237L, A258T, P331R, D435H, R440Q, E442S
light: not shown
notes: EU numbering; copies: 2 + 2

The binders below were run against T1, soluble human FcRn (human, UniProt P55899 24-297; P61769 21-119) (assay: SPR (Biacore T100), antibody captured by protein L, hFcRn as analyte, pH 7.0, 25 C;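 note: KD calculated from fitted association and dissociation rate constants of the sensorgrams, protein L amine-coupled to the sensor chip, sodium phosphate running buffer with NaCl and Tween20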).
T1 construct: Heterodimer of FcRn alpha chain and beta2-microglobulin; also called hFcRn
Experimental: An appropriate amount of protein L (ACTIGEN) was immobilized onto Sensor chip CM4 (GE Healthcare) by the amino coupling method, and the chip was allowed to capture an antibody of interest. Then, diluted FcRn solutions and running buffer (as a reference solution) were injected to allow human FcRn to interact with the antibody captured on the sensor chip. The running buffer used comprised 50 mmol/l sodium phosphate, 150 mmol/l NaCl, and 0.05% (w/v) Tween20 (pH 7.0). FcRn was diluted using each buffer. The chip was regenerated using 10 mmol/l glycine-HCl (pH 1.5). Assays were carried out exclusively at 25 degrees C. The association rate constant ka (1/Ms) and dissociation rate constant kd (1/s), both of which are kinetic parameters, were calculated based on the sensorgrams obtained in the assays, and KD (M) of each antibody for human FcRn was determined from these values. Each parameter was calculated using Biacore T100 Evaluation Software (GE Healthcare).

| Kd | Binder |
| --- | --- |
| 0.17 µM | B1 |
| 0.32 µM | B2 |
| 0.2 µM | B3 |
| 0.18 µM | B4 |
| 0.094 µM | B5 |
| 0.21 µM | B6 |
| 0.15 µM | B7 |
| 0.1 µM | B8 |
| 0.2 µM | B9 |
| 0.056 µM | B10 |
| 0.077 µM | B11 |
| 0.13 µM | B12 |
| 0.11 µM | B13 |
| 0.15 µM | B14 |
| 0.17 µM | B15 |
| 0.22 µM | B16 |
| 0.079 µM | B17 |
| 0.12 µM | B18 |
| 0.12 µM | B19 |
| 0.12 µM | B20 |

| Kd | Binder |
| --- | --- |
| 0.098 µM | B21 |
| 0.1 µM | B22 |
| 0.1 µM | B23 |
| 0.16 µM | B24 |
| 0.086 µM | B25 |
| 0.15 µM | B26 |
| 0.071 µM | B27 |
| 0.4 µM | B28 |
| 0.23 µM | B29 |
| 0.16 µM | B30 |
| 0.25 µM | B31 |
| 0.15 µM | B32 |
| 0.27 µM | B33 |
| 0.13 µM | B34 |
| 0.21 µM | B35 |
| 0.42 µM | B36 |
| 0.1 µM | B37 |
| 0.23 µM | B38 |
| 0.088 µM | B39 |
| 0.19 µM | B40 |

| Kd | Binder |
| --- | --- |
| 0.077 µM | B41 |
| 0.23 µM | B42 |
| 0.13 µM | B43 |
| 0.13 µM | B44 |
| 0.15 µM | B45 |
| 0.17 µM | B46 |
| 0.15 µM | B47 |
| 0.11 µM | B48 |
| 0.21 µM | B49 |
| 0.13 µM | B50 |
| 0.18 µM | B51 |
| 0.072 µM | B52 |
| 0.25 µM | B53 |
| 0.14 µM | B54 |
| 0.1 µM | B55 |
| 0.12 µM | B56 |
| 0.16 µM | B57 |
| 0.074 µM | B58 |
| 0.14 µM | B59 |
| 0.14 µM | B60 |
